Among the data in US20230183353A1 (ZYDUS LIFESCIENCES, published 2023) are Kd values, retold here.

Assay [1] addresses T1, recombinant human neonatal Fc receptor (rhFcRn) (human, UniProt P55899 24-297; P61769 21-119).
T1 construct: Bought recombinant protein (Sino Biologics), immobilised on a GLC chip; also called Human FcRn; FcRn/FcGRT
In words: SPR (ProteOn XPR36), rhFcRn immobilised on GLC chip, pH 6.0, 25 C. On the procedure: The kinetic constants for the binding of Fc variants to recombinant human neonatal Fc receptor (rhFcRn) were determined by Surface Plasmon Resonance-based measurement using the ProteOn™ XPR36 (Bio-Rad). The rhFcRn receptor (Sino Biologics) was immobilized on a GLC chip following manufacturer's instruction. 10 mM phosphate buffer saline (PBS) (10 mM phosphate buffer, pH 6.0, 150 mM NaCl, with 0.005% Tweet 20) was used as running buffer to carry out the kinetic measurements. […] Reactions were carried in PBS (pH 6.0, 0.005% surfactant P20) at 25° C. After each sample run, the chip surface was regenerated using two pulses of PBS (0.005% surfactant P20), pH 7.4, followed by one pulse of glycine buffer pH 1.5. The data, in the form of sensograms, was analysed using the data-fitting programs in the ProteOn™ system.

The next assay concerns the target recombinant mouse FcRn (mouse, UniProt Q61559 22-297). Kind of assay: SPR (ProteOn XPR36), FcRn immobilised on GLC chip by amine coupling, pH 6.0, 25 C. The protocol:
(§1) In this experiment, binding of the Fc variant of the current invention to FcRn of different species was determined by surface plasmon resonance-based measurement using the ProteOn™ XPR36 (Bio-Rad). […] Fc variant used to conduct this experiment was produced using CHO cell as an expression system. FcRn (of different species) was immobilized on a GLC sensor chip surface using a standard amine coupling chemistry, and essentially, following the manufacturers' instruction. 10 mM phosphate buffered saline (PBS) (10 mM phosphate buffer, pH 6.0, 150 mM NaCl, 0.005% Tween 20) was used as the running buffer to carry out the kinetic measurements. To measure the association rate constant (kassoc) and dissociation rate constant (kdissoc), five dilutions of Fc muteins were prepared in above mentioned running buffer and injected at a flow rate of 100 μL/min with an association time of 180 s and dissociation time of 600 s. All the reactions were carried at 25° C. After each sample run, the chip surface was regenerated using PBST, pH 7.4. The data, in the form of sensorgrams, was analyzed using the data-fitting programs in the ProteOn™ system.

Another assay concerns the target recombinant monkey FcRn (monkey). The assay is described as above. The protocol: as §1
For assay [2], the target named is T1, recombinant human neonatal Fc receptor …. The assay is described as above. On the procedure:
as §1

Assay [3] deals with T2, recombinant human FcγRIIIa (Phe) (human, UniProt P08637 17-208, limits assumed).
T2 construct: Directly immobilised on a GLC chip by amine coupling; also called FcγRIIIa F158; CD16a
T2 sequence (P08637 17-208 limits assumed): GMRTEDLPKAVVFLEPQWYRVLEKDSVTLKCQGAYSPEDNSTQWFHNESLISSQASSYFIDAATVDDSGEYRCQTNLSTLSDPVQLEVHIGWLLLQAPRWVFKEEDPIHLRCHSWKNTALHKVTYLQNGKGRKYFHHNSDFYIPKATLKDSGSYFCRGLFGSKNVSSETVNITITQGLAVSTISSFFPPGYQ
Kind of assay: SPR (ProteOn), receptor immobilised on GLC chip by amine coupling, pH 7.4, 25 C. On the procedure:
(§2) In this experiment, the kinetic constants for the binding of Fc variant to recombinant Fc gamma receptors were determined by Surface Plasmon Resonance-based measurement using the ProteOn™ […] (Bio-Rad). […] All the recombinant human Fc receptors were directly immobilized on a GLC sensor chip surface using a standard amine coupling chemistry, and essentially, following the manufacturers' instruction. 10 mM phosphate buffered saline (PBS) (10 mM phosphate buffer, pH 7.4, 150 mM NaCl, with 0.005% Tween 20) was used as the running buffer to carry out the kinetic measurements for all the Fc receptor. To measure the association rate constant (kassoc) and dissociation rate constant (kdissoc), five dilutions of Fc variants were prepared in above mentioned running buffer and injected at a flow rate of 50 μL/min. Association time and dissociation time at each interaction is mentioned in table below. All the reactions were performed at 25° C. The data, in the form of sensorgrams, were analyzed using the data-fitting programs available with the ProteOn™ system.

Assay [4] addresses T3, recombinant human FcγRIIIa (Val) (human, UniProt P08637 17-208, limits assumed).
T3 construct: Directly immobilised on a GLC chip by amine coupling; also called FcγRIIIa V158; CD16a
The assay is described as above. On the procedure:
as §2

Where a chain is given by its changes, count along the chain named. Names may count otherwise.

T1 sequence (P55899 24-297 limits assumed, chain 1 of 2): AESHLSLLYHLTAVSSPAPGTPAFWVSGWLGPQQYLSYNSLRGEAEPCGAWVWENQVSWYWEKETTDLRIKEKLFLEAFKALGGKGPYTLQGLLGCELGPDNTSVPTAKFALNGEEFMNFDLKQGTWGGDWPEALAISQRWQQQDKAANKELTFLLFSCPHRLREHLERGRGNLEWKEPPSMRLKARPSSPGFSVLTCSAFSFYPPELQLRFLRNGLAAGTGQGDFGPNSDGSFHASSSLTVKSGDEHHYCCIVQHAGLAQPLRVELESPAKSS
T1 sequence (P61769 21-119 limits assumed, chain 2 of 2): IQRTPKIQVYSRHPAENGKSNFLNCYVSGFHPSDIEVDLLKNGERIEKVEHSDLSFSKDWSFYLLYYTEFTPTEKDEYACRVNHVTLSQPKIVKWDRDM
Sequence of recombinant monkey FcRn (monkey) (Q8SPV9 24-297, chain 1 of 2): as the sequence (P55899 24-297 limits assumed, chain 1 of 2) above, with N39D, E44Q, G99S, S189G, S190N, L217M, S269T counted along it
Sequence of recombinant monkey FcRn (monkey) (Q8SPW0 21-119, chain 2 of 2, further chain): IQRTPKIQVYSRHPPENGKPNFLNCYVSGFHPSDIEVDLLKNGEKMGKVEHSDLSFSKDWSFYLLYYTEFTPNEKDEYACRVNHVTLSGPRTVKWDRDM
Sequence of recombinant mouse FcRn (Q61559 22-297): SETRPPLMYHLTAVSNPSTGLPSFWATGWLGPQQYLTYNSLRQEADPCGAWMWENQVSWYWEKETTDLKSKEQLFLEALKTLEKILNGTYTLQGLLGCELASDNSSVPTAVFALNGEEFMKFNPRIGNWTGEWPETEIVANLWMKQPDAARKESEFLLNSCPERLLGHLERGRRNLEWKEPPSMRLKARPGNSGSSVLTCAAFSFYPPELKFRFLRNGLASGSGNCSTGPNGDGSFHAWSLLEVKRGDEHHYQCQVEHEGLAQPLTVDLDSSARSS
T3 sequence (P08637 17-208 F176V limits assumed): as the sequence (P08637 17-208 limits assumed) above, with F160V counted along it

B1: Fc variant F3-9 (SEQ ID No. 20; L432M/H433P/N434F) (other)
chain: DKTHTCPPCPAPELLGGPSVFLFPPKPKDTLMISRTPEVTCVVVDVSHEDPEVKFNWYVDGVEVHNAKTKPREEQYNSTYRVVSVLTVLHQDWLNGKEYKCKVSNKALPAPIEKTISKAKGQPREPQVYTLPPSRDELTKNQVSLTCLVKGFYPSDIAVEWESNGQPENNYKTTPPVLDSDGSFFLYSKLTVDKSRWQQGNVFSCSVMHEAMPFHYTQKSLSLSPGK
For orientation: Kd means a measure of binding affinity in units of concentration. As for B1, the Kd in assay [1] came out at 3.63 nM.

B2: Fc variant H11+A4 (SEQ ID No. 22; T307N/V308P/L309Y/H433R/N434W), Fc monomer (other)
chain: B1 chain with T87N, V88P, L89Y, M212L, P213R, F214W
notes: also called 22b
Turning to B2, the Kd was 0.615 nM with recombinant mouse FcRn; 0.801 nM in the assay with recombinant monkey FcRn; 0.791 nM in assay [2]; 241 nM in assay [3]; 205 nM in assay [4]; 0.288 nM in assay [1].
